Data as given in publication PMC1977871.

Target: 160 kd cell surface receptor (human (endogenous in MDA.MB.231 and 184A1))
Test: radioligand binding; competition: 5 nM 125I-labelled TAA.62(T) on MDA.MB.231 monolayers with or without unlabelled peptide (cells preincubated with the growth factors), 2 h at 4 C, EBSS with 20 mM Hepes pH 7.4 and 1% BSA; specific binding as % of control

transforming growth factor-alpha (from UniProt P01135 40-89) (ligand)
specific binding of 125I-TAA.62(T) (% of control): 98 % of control

transforming growth factor-beta (ligand)
specific binding of 125I-TAA.62(T) (% of control): 95 % of control

insulin-like growth factor (from UniProt P05019 49-118) (ligand)
specific binding of 125I-TAA.62(T) (% of control): 97 % of control

epidermal growth factor (from UniProt P01133 971-1023) (ligand)
specific binding of 125I-TAA.62(T) (% of control): 102 % of control
